Measurements as given in patent US20230382948A1, “DELIVERY OF ENDOTHELIAL CELL-LADEN MICROGEL ELICITS ANGIOGENESIS IN SELF-ASSEMBLING ULTRASHORT PEPTIDE HYDROGELS” (KING ABDULLAH UNIVERSITY OF SCIENCE AND TECHNOLOGY, priority 2020, published 2023).
Where no end group is shown, it is not given here. [ ]: non-standard residue; d: D form. Cha = N[C@@H](CC1CCCCC1)C(=O)O

How the values were obtained:
[1] = Rheological characterization of SUP bulk hydrogels; type: physicochemical
Procedure: The mechanical stiffness of the peptide hydrogels was analyzed using a TA Ares-G2 Rheometer equipped with parallel-plate geometries of 8 mm diameter at room temperature. The sample gap between the upper and the lower geometries was set at 1.8 mm. The hydrogels were prepared from 135 μL of peptide solution that was mixed with 15 μL of 10×PBS in an 8 mm i.d. poly(methyl methacrylate) (PMMA) casting ring and left for 1 day before measurement. The rings were kept inside Petri dishes at room temperature with water surrounding them and tightly sealed to avoid dehydration. To control the accuracy of the measurements, six replicates for each peptide hydrogel were prepared. The stiffness was analyzed through three successive tests, which were time sweep, frequency sweep, and amplitude sweep. Time sweep was first performed for 5 min with an angular frequency and a strain of 1 rad/s and 0.1%, respectively. A frequency sweep was subsequently performed on the sample for a range of angular frequency of 0.1-100 rad/s with the same strain of 0.1%. The tests were completed with the amplitude sweep by applying a gradual increase of strain […] at 1 rad/s angular frequency.

[2] = Peptide gelation study (vial inversion method); type: physicochemical; settings: 1 mg/ml and 10 mg/ml, compared to IIZK and IZZK, FIG. 57
Procedure: The preweighed (as per the required final concentration) peptide powder was dissolved in 0.9 mL of Milli-Q® water in a glass vial. The solution was vortexed for 5-10 s to obtain a clear and homogeneous solution. To this peptide solution, 0.1 mL of PBS buffer (10×, w/o Ca^2+ and Mg^2+) was added. To ensure a homogeneous distribution of buffer in the solution, the glass vial was further vortexed for 2-3 s. The glass vial was kept undisturbed on the bench, and hydrogel formation was observed using the vial inversion method, as shown in FIG. 9. The pH of the solutions of IVFK (SEQ ID NO. 1) and IVZK (SEQ ID NO. 2) was 5.57 and 5.48 at a 5 mg/mL concentration, respectively. After the addition of PBS, the pH changed to 7.7 and 7.6 for IVFK (SEQ ID NO. 1) and IVZK (SEQ ID NO. 2), respectively. The pH of the Milli-Q® water and phosphate buffer used was 6.7 and 7.4, respectively.

| Substance | Loss modulus (G″) ([1]; 1 mg/mL) | Storage Modulus (G′, kPa) ([1]; 1 mg/mL) | tan δ (G″/G′) ([1]; 1 mg/mL) | Loss modulus (G″) ([1]; 2 mg/mL) | Storage Modulus (G′, kPa) ([1]; 2 mg/mL) | tan δ (G″/G′) ([1]; 2 mg/mL) | Loss modulus (G″) ([1]; 5 mg/mL) | Storage Modulus (G′, kPa) ([1]; 5 mg/mL) | tan δ (G″/G′) ([1]; 5 mg/mL) | Loss modulus (G″) ([1]; 8 mg/mL) | Storage Modulus (G′, kPa) ([1]; 8 mg/mL) | tan δ (G″/G′) ([1]; 8 mg/mL) | Loss modulus (G″) ([1]; 10 mg/mL) | Storage Modulus (G′, kPa) ([1]; 10 mg/mL) | tan δ (G″/G′) ([1]; 10 mg/mL) | Loss modulus (G″) ([1]; 13 mg/mL) | Storage Modulus (G′, kPa) ([1]; 13 mg/mL) | tan δ (G″/G′) ([1]; 13 mg/mL) | Self-assembly rate (time to form a gel) [2] |
| --- | --- | --- | --- | --- | --- | --- | --- | --- | --- | --- | --- | --- | --- | --- | --- | --- | --- | --- | --- |
| IIZK: self-assembling ultrashort tetrapeptide, Cha-containing, one-letter sequence IIZK (II[Cha]K) | 0.88 ± 0.04 kPa | 6.52 ± 0.18 kPa | 0.13 | 2.02 ± 0.09 kPa | 16.82 ± 0.72 kPa | 0.12 | 7.08 ± 0.59 kPa | 64.74 ± 4.89 kPa | 0.11 | 10.91 ± 0.44 kPa | 89.40 ± 1.86 kPa | 0.12 | 15.54 ± 0.68 kPa | 134.04 ± 5.99 kPa | 0.12 | 37.76 ± 2.38 kPa | 271.34 ± 35.09 kPa | 0.14 |  |
| IIFK: self-assembling ultrashort tetrapeptide, one-letter sequence IIFK | 0.13 ± 0.04 kPa | 1.25 ± 0.86 kPa | 0.10 | 1.31 ± 0.12 kPa | 14.45 ± 1.37 kPa | 0.09 | 2.39 ± 0.11 kPa | 27.26 ± 1.30 kPa | 0.09 | 5.00 ± 0.31 kPa | 49.74 ± 5.02 kPa | 0.10 | 9.04 ± 0.56 kPa | 94.18 ± 7.12 kPa | 0.10 | 8.90 ± 0.36 kPa | 108.21 ± 5.02 kPa | 0.08 | slower than the Cha-containing peptides |
